Bridges are numbered along the chain shown (N, C = ends). Where no end group is shown, it is not given here. [ ]: non-standard residue; d: D form.
Experiments:
[1] = target: mouse melanocortin 4 receptor fused to EGFP (mouse) (UniProt P56450)
[2] = target: mouse melanocortin 4 receptor fused to EGFP (mouse) (UniProt P56450); remark: listed apart in the source
[3] = target: human melanocortin 4 receptor with LgBit fused at the C-terminus (human) (UniProt P32245)
[4] = target: human melanocortin 4 receptor with C-terminally fused SmBit (human) (UniProt P32245)
human melanocortin 4 receptor with C-terminally fused SmBit (human), sequence (P32245 whole entry, the tested form may be a part): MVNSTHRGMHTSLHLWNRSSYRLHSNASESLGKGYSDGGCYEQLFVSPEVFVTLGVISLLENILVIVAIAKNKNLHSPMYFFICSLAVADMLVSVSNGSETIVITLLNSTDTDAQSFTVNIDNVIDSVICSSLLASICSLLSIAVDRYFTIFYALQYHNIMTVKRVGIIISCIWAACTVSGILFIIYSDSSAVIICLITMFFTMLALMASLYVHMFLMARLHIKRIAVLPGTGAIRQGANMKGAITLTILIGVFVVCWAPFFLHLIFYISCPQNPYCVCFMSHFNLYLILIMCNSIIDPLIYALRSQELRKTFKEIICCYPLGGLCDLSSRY

mouse melanocortin 4 receptor fused to EGFP (mouse), sequence (P56450 whole entry, the tested form may be a part): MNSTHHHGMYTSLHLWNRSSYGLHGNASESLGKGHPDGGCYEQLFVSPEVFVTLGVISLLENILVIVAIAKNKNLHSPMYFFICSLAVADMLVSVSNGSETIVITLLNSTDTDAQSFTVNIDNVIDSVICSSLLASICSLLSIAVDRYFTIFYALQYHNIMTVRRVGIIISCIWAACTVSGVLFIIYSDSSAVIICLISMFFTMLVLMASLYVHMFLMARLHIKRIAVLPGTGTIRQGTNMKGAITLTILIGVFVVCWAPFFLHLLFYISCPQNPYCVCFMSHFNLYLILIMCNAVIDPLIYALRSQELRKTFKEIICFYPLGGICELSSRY
human melanocortin 4 receptor with LgBit fused at the C-terminus (human), sequence (P32245 whole entry, the tested form may be a part): as the sequence (P32245 whole entry, the tested form may be a part) above

cAMP accumulation (Cisbio HTRF) in HEK293 cells transiently expressing mouse MC4R-EGFP: EC50 [1]	cAMP accumulation (Cisbio HTRF) in HEK293 cells transiently expressing mouse MC4R-EGFP: Emax (normalised to NDP-α-MSH) [1]	recruitment of β-arrestin-2-nanoluciferase to MC4R-EGFP (kinetic BRET, HEK293 cells), 10 μM peptide: BRET efficiency relative to NDP-α-MSH (100) [2]	coupling of Gαs-SmBit to MC4R-LgBit (nanoluciferase complementation, live cells): EC50 [3]	coupling of Gαs-SmBit to MC4R-LgBit (nanoluciferase complementation, live cells): efficacy above that of α-MSH (% more efficacious than α-MSH) [3]	recruitment of β-arrestin-2-LgBit to MC4R-SmBit (nanoluciferase complementation, live cells): EC50 [4]	recruitment of β-arrestin-2-LgBit to MC4R-SmBit (nanoluciferase complementation, live cells): increase in efficacy (Emax) over α-MSH (% increase in efficacy compared to α-MSH) [4]	Binder
1 nM	98%	> 130%	0.702 nM	25	25.2 nM	82	GFCWYVCPH[dF]HWCYRRCN-NH2 (disulfide 7-13, 3-17; N-terminus assumed; SMILES CC(C)[C@@H]1NC(=O)[C@H](Cc2ccc(O)cc2)NC(=O)[C@H](Cc2c[nH]c3ccccc23)NC(=O)[C@@H](NC(=O)[C@H](Cc2ccccc2)NC(=O)CN)CSSC[C@@H](C(=O)N[C@@H](CC(N)=O)C(N)=O)NC(=O)[C@H](CCCNC(=N)N)NC(=O)[C@H](CCCNC(=N)N)NC(=O)[C@H](Cc2ccc(O)cc2)NC(=O)[C@@H]2CSSC[C@H](NC1=O)C(=O)N1CCC[C@H]1C(=O)N[C@@H](Cc1c[nH]cn1)C(=O)N[C@H](Cc1ccccc1)C(=O)N[C@@H](Cc1c[nH]cn1)C(=O)N[C@@H](Cc1c[nH]c3ccccc13)C(=O)N2) [arenicin-3-like peptide 1]
3.7 nM	96%	> 130%	0.193 nM	8.8	23.5 nM	99	RGGRLCYCPH[dF]HWCFCVGR-NH2 (disulfide 8-14, 6-16; N-terminus assumed; SMILES CC(C)C[C@H](NC(=O)[C@H](CCCNC(=N)N)NC(=O)CNC(=O)CNC(=O)[C@@H](N)CCCNC(=N)N)C(=O)N[C@H]1CSSC[C@@H](C(=O)N[C@H](C(=O)NCC(=O)N[C@@H](CCCNC(=N)N)C(N)=O)C(C)C)NC(=O)[C@H](Cc2ccccc2)NC(=O)[C@@H]2CSSC[C@H](NC(=O)[C@H](Cc3ccc(O)cc3)NC1=O)C(=O)N1CCC[C@H]1C(=O)N[C@@H](Cc1c[nH]cn1)C(=O)N[C@H](Cc1ccccc1)C(=O)N[C@@H](Cc1c[nH]cn1)C(=O)N[C@@H](Cc1c[nH]c3ccccc13)C(=O)N2) [protegrin-4-like peptide 1]
